According to patent publication US20230365641:
Where “and” joins values, the source holds several entries; their conditions need not be identical. Equal values may be shown once.

Sequence of MMP-10 protease (chain, as listed by the source): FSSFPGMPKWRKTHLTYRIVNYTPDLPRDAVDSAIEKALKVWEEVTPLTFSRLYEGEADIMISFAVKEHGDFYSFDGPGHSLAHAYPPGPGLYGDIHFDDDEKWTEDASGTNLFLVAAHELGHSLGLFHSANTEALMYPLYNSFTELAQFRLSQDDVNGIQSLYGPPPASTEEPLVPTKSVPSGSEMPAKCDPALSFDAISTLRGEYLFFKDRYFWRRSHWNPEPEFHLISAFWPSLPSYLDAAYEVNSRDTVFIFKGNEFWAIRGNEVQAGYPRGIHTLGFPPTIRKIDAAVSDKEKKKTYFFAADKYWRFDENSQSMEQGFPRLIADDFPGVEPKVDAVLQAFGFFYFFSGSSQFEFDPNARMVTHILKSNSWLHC
Sequence of recombinant human MMP-9 (chain, as listed by the source): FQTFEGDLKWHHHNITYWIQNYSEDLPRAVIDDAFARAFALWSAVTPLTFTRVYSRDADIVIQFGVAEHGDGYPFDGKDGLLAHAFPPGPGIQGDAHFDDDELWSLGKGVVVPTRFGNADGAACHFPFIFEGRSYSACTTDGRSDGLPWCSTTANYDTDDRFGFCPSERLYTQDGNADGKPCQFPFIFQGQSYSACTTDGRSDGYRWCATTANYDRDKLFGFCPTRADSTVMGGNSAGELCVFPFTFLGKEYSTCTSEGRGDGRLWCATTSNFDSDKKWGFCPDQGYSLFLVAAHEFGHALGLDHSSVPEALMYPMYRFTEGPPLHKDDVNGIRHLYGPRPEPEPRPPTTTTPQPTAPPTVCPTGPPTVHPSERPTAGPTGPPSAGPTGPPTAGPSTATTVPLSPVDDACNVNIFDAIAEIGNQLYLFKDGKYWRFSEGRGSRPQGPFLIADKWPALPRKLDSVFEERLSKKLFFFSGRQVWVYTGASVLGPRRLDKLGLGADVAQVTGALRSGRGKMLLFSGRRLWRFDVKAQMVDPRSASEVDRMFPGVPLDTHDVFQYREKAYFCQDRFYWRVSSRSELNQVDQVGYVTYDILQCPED
Sequence of TC24 (chain, as listed by the source, chain 1 of 3, other chains not shown): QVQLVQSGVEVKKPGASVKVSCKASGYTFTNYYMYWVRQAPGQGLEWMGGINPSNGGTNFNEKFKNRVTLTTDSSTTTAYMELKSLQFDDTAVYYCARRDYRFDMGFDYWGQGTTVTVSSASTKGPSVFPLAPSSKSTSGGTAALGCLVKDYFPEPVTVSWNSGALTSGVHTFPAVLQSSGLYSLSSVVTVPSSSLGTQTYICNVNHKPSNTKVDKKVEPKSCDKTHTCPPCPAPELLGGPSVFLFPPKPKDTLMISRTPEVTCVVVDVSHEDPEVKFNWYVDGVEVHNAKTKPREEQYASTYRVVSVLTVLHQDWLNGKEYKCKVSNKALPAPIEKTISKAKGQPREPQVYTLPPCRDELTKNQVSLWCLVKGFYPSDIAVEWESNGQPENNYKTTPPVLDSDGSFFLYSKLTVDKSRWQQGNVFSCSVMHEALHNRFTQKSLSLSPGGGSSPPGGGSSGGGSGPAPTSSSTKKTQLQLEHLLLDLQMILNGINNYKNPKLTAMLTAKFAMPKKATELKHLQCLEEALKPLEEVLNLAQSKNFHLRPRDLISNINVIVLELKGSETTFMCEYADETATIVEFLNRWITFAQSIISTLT
Sequence of TC24 (chain, as listed by the source, chain 2 of 3, other chains not shown): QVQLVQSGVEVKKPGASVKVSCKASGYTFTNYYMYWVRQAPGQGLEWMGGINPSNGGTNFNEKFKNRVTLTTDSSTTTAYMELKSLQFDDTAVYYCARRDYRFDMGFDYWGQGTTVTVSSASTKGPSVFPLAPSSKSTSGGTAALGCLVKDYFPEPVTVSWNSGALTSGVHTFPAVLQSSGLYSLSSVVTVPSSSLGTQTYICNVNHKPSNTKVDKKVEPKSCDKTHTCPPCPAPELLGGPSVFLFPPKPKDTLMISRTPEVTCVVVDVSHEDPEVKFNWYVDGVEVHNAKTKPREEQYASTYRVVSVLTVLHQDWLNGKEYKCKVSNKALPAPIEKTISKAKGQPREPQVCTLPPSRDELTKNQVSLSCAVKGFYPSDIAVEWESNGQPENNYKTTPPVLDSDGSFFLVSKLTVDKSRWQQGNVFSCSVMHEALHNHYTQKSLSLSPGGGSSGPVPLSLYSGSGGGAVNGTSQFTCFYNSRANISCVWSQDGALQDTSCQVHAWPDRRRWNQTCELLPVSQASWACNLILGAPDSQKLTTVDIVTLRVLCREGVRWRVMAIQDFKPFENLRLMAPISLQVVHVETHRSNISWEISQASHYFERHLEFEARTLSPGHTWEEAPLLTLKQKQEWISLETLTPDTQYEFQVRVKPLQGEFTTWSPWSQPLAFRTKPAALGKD
Sequence of TC46 (chain, as listed by the source, chain 1 of 3, other chains not shown): as the sequence (chain, as listed by the source, chain 1 of 3, other chains not shown) above
Sequence of TC46 (chain, as listed by the source, chain 2 of 3, other chains not shown): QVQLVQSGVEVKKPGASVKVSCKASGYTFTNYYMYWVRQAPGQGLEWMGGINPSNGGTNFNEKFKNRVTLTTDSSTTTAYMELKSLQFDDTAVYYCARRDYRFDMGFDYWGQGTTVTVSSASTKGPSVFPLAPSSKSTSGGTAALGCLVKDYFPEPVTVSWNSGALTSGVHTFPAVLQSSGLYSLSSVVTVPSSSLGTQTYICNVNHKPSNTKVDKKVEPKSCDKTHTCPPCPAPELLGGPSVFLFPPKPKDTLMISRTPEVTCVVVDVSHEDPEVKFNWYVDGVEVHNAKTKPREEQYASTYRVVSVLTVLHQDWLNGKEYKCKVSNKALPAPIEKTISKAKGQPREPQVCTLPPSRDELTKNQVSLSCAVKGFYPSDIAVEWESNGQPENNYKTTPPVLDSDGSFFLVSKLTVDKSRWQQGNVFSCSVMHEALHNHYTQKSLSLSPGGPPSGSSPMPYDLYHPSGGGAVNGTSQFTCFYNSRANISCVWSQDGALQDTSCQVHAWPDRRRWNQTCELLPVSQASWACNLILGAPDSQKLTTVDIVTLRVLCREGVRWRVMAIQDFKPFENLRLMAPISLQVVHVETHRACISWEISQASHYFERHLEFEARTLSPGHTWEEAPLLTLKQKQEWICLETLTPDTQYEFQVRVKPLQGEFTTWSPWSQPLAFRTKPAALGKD
Sequence of TC47 (chain, as listed by the source, chain 1 of 3, other chains not shown): as the sequence (chain, as listed by the source, chain 1 of 3, other chains not shown) above
Sequence of TC47 (chain, as listed by the source, chain 2 of 3, other chains not shown): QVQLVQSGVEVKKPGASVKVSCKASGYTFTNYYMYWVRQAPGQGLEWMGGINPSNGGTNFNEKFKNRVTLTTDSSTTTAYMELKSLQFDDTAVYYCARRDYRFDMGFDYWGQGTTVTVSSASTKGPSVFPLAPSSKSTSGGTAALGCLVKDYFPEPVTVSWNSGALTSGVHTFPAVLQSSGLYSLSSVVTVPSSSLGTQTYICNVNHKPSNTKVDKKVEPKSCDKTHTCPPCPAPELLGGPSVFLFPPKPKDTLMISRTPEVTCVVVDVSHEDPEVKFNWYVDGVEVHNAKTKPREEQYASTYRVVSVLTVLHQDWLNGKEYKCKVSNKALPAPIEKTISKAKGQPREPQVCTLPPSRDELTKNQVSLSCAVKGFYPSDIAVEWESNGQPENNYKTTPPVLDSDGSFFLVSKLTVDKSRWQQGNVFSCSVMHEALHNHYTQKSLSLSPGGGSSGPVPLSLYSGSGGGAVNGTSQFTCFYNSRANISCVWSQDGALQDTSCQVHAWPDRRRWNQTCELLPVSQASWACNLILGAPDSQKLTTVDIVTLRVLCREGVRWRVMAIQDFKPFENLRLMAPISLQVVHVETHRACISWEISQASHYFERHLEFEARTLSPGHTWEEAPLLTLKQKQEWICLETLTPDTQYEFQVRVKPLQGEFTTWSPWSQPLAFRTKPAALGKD
Sequence of TC3 (chain, as listed by the source, chain 1 of 3, other chains not shown): as the sequence (chain, as listed by the source, chain 1 of 3, other chains not shown) above
Sequence of TC3 (chain, as listed by the source, chain 2 of 3, other chains not shown): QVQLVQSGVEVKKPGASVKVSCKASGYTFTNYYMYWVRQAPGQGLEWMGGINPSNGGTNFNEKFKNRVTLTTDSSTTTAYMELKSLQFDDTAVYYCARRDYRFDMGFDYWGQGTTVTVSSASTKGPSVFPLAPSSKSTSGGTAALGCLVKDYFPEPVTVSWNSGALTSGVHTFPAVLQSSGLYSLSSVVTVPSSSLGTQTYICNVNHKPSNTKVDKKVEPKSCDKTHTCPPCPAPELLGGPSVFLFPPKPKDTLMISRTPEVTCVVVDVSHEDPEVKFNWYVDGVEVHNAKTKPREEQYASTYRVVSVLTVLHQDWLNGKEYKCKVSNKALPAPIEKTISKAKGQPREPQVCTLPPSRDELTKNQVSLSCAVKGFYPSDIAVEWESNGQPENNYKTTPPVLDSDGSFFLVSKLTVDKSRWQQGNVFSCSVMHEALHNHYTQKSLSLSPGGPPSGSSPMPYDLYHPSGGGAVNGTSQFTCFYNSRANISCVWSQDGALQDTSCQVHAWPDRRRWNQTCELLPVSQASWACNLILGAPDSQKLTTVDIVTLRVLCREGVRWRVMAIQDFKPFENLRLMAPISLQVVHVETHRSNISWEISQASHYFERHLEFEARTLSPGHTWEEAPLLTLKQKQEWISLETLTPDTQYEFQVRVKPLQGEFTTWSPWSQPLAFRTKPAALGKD

Substance | Est. kcat/KM (TC68) | Est. kcat/KM (TC3) | Est. kcat/KM (TC70) | Est. kcat/KM (TC73) | Est. kcat/KM (TC57) | Est. kcat/KM (TC47) | Est. kcat/KM (TC46) | Est. kcat/KM (TC24) | Est. kcat/KM (TC69) | Est. kcat/KM (TC74) | Est. kcat/KM (TC53) | Est. kcat/KM (TC71) | Est. kcat/KM (TC75) | cleavage efficiency (TC21) | cleavage efficiency (TC27) | cleavage efficiency (TC26) | cleavage efficiency (TC24)
recombinant human MMP-9 | 16000 M⁻¹ s⁻¹ and 15000 M⁻¹ s⁻¹ | 3500 M⁻¹ s⁻¹ | 390 M⁻¹ s⁻¹ and 370 M⁻¹ s⁻¹ | 30000 M⁻¹ s⁻¹ and 29000 M⁻¹ s⁻¹ | 13000 M⁻¹ s⁻¹ and 14000 M⁻¹ s⁻¹ | 38000 M⁻¹ s⁻¹ | 3500 M⁻¹ s⁻¹ | 42000 M⁻¹ s⁻¹ | 35000 M⁻¹ s⁻¹ and 36000 M⁻¹ s⁻¹ | 850 M⁻¹ s⁻¹ and 860 M⁻¹ s⁻¹ | 19000 M⁻¹ s⁻¹ and 18000 M⁻¹ s⁻¹ | 28000 M⁻¹ s⁻¹ and 30000 M⁻¹ s⁻¹ | 25000 M⁻¹ s⁻¹ and 26000 M⁻¹ s⁻¹ |  |  |  | 
MMP-10 protease |  |  |  |  |  |  |  |  |  |  |  |  |  | cleavage efficiency of greater than 80% | cleavage efficiency of greater than 80% | cleavage efficiency of greater than 80% | cleavage efficiency of greater than 80%
